Four molecules from article PMC9482650, “Quantitative fragmentomics allow affinity mapping of interactomes” (Nature Communications, 2022) can be followed below.

Targets include PARD3_3, Q8TEW0; GIPC2, Q8TF65; Inadl_10, Q8NI35; MAGI1_2, Q96QZ7; NHERF4_4, Q86UT5; Inadl_1, Q8NI35; MAGI2_3, Q86UL8; DLG4_2, P78352; Inadl_4, Q8NI35; MAST2, Q6P0Q8; FRMPD2_1, Q68DX3; MAGI3_2, Q5TCQ9; GORASP1, Q9BQQ3; Inadl_8, Q8NI35; LNX1_2, Q8TBB1; FRMPD2_3, Q68DX3; LNX1_3, Q8TBB1; Inadl_6, Q8NI35.
Common to all, as to assay: holdup assay
Holding throughout (design): key: below the threshold = too weak to quantify, mostly under pKd 3.1 to 4

A further assay deals with T1, SNTA1, Q13424.
T1 sequence (Q13424 82-180, limits assumed, looked up): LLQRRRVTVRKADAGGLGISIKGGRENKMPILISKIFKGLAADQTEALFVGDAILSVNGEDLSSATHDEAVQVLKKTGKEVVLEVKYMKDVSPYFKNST

The next assay addresses T2, LIN7B, Q9HAP6.
T2 sequence (Q9HAP6 88-185, limits assumed, looked up): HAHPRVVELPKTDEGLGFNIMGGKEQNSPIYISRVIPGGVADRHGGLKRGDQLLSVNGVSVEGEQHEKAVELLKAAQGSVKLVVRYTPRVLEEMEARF

The target in the next assay is T3, DLG3_2, Q92796.
T3 sequence (Q92796 221-321, limits assumed, looked up): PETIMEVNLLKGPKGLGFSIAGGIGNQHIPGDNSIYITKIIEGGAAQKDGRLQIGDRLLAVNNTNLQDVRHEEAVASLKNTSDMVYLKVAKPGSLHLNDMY

The target in a further assay is T4, FRMPD1, Q5SYB0.
T4 sequence (Q5SYB0 52-145, limits assumed, looked up): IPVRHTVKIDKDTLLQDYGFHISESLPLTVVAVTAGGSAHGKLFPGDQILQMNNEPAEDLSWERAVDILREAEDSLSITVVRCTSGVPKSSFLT

A further assay concerns the target T5, APBA1_1, Q02410.
T5 sequence (Q02410 651-752, limits assumed, looked up): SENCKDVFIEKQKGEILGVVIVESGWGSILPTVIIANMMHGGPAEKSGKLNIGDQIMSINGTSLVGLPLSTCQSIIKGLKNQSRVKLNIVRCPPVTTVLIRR

The target of the next assay is T6, NHERF3_3, Q5T2W1.
T6 sequence (Q5T2W1 238-333, limits assumed, looked up): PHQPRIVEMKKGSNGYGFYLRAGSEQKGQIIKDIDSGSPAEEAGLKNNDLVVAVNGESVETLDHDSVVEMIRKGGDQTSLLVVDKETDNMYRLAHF

The target of another assay is T7, HTRA3, P83110.
T7 sequence (P83110 354-453, limits assumed, looked up): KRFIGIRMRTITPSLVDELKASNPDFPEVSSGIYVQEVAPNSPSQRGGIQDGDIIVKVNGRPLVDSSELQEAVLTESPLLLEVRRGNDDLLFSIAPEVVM

The next assay concerns the target T8, RHPN1, Q8TCX5.
T8 sequence (Q8TCX5 508-602, limits assumed, looked up): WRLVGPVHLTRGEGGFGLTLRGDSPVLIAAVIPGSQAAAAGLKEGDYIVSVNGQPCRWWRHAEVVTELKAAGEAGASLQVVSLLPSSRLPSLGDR

Another assay addresses T9, ARHGEF11, O15085.
T9 sequence (O15085 42-136, limits assumed, looked up): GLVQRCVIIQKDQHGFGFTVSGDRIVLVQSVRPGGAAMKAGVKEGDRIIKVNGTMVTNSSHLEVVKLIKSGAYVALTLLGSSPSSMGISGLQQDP

Another assay has as its target GOPC, Q9HD26. Conditions: plain residues with an end cap or a label only (N-terminal biotin on a linker: ado-ado).
The mark [1] stands for this setting: modified: phospho on T at position -2 from the C-terminal residue.
Where [2] appears, read: plain residues with an end cap or a label only (N-terminal biotin on a linker: ado-ado).

Sequence of LNX1_2, Q8TBB1 (Q8TBB1 371-470): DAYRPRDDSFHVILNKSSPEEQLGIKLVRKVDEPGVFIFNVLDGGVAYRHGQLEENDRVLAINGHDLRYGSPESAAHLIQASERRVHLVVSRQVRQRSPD
Sequence of Inadl_4, Q8NI35 (Q8NI35 547-651): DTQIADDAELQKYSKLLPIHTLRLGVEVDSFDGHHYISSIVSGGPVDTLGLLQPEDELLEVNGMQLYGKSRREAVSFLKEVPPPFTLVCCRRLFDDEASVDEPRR
Sequence of MAGI1_2, Q96QZ7 (Q96QZ7 456-580): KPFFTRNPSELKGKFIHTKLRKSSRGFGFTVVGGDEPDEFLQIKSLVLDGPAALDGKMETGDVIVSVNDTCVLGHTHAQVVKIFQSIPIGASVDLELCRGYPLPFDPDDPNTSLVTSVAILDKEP
Sequence of GIPC2, Q8TF65 (Q8TF65 112-203): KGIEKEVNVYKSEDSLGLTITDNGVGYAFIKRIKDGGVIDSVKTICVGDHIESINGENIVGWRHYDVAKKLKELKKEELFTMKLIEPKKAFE
Sequence of Inadl_1, Q8NI35 (Q8NI35 113-229): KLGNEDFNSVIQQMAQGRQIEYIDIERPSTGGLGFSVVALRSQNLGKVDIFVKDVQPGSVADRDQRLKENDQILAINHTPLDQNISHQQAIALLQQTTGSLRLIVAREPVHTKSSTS
Sequence of FRMPD2_3, Q68DX3 (Q68DX3 1073-1166): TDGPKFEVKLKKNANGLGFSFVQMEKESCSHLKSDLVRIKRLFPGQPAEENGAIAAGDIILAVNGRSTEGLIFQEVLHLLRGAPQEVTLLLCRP
Sequence of FRMPD2_1, Q68DX3 (Q68DX3 770-861): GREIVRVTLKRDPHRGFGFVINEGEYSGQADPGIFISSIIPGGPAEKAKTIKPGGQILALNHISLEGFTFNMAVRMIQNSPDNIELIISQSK
Sequence of Inadl_6, Q8NI35 (Q8NI35 1058-1167): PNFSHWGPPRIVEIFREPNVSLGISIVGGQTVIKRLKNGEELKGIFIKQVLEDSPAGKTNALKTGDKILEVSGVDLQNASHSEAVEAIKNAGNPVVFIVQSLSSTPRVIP
Sequence of PARD3_3, Q8TEW0 (Q8TEW0 582-685): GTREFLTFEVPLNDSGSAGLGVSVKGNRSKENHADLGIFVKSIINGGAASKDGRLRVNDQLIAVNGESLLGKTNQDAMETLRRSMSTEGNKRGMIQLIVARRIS
Sequence of MAGI2_3, Q86UL8 (Q86UL8 600-682): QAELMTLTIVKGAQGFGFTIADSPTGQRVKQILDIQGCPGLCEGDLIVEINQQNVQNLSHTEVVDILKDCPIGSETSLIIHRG
Sequence of MAST2, Q6P0Q8 (Q6P0Q8 1099-1202): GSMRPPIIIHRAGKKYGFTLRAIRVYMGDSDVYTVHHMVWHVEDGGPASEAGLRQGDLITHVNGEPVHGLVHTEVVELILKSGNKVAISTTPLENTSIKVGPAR
Sequence of GORASP1, Q9BQQ3 (Q9BQQ3 1-208): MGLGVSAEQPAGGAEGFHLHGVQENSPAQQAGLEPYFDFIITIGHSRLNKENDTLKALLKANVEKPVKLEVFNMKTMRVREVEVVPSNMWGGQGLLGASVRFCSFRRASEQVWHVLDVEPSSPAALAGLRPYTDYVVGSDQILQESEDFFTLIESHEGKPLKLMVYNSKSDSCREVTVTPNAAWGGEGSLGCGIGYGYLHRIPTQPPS
Sequence of NHERF4_4, Q86UT5 (Q86UT5 464-550): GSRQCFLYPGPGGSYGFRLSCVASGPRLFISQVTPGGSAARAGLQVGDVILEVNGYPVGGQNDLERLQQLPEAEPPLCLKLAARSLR
Sequence of Inadl_10, Q8NI35 (Q8NI35 1673-1763): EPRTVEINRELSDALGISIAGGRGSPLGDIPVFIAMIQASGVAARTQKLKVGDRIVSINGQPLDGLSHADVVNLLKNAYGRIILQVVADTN
Sequence of LNX1_3, Q8TBB1 (Q8TBB1 500-596): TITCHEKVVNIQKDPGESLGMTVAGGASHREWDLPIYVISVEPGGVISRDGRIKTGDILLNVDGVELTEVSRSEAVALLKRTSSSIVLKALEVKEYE
Sequence of DLG4_2, P78352 (P78352 155-259): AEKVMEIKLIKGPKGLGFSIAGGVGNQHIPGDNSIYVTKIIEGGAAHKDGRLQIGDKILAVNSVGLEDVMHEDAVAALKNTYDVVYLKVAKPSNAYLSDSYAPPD
Sequence of Inadl_8, Q8NI35 (Q8NI35 1425-1530): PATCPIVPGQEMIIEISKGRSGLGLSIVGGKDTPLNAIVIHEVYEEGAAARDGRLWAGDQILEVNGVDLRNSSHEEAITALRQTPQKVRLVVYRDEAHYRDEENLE
Sequence of MAGI3_2, Q5TCQ9 (Q5TCQ9 398-503): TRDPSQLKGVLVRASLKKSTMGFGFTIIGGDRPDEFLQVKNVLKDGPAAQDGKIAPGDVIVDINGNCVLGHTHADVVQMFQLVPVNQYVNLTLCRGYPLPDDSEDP

With RLQRRRETQV [HPV18-E6_-2P, P06463], the pKd (as a rule, the negative decadic logarithm of the Kd, by convention in mol/L) with PARD3_3, Q8TEW0 (setting [1]) was “below the threshold”; with GIPC2, Q8TF65 (setting [1]), “below the threshold”; with Inadl_10, Q8NI35 (setting [1]) it was “below the threshold”; in the assay with SNTA1, Q13424 (setting [1]), “below the threshold”; with MAGI1_2, Q96QZ7 (setting [1]), “below the threshold”; with LIN7B, Q9HAP6 (setting [1]) it was “below the threshold”. Further, the pKd result in the assay with DLG3_2, Q92796 (setting [1]) was “below the threshold”; with NHERF4_4, Q86UT5 (setting [1]) it was “below the threshold”; with FRMPD1, Q5SYB0 (setting [1]) it was “below the threshold”; with Inadl_1, Q8NI35 (setting [1]) it was “below the threshold”; in the assay with APBA1_1, Q02410 (setting [1]), “below the threshold”; with MAGI2_3, Q86UL8 (setting [1]) it was “below the threshold”. The negative-log Kd (pKd) with DLG4_2, P78352 (setting [1]) is 3.65; with Inadl_4, Q8NI35 (setting [1]), “below the threshold”; with MAST2, Q6P0Q8 (setting [1]) it was “below the threshold”; with NHERF3_3, Q5T2W1 (setting [1]) it was “below the threshold”; with FRMPD2_1, Q68DX3 (setting [1]), “below the threshold”; with MAGI3_2, Q5TCQ9 (setting [1]), “below the threshold”. For the same molecule, the pKd entry in the assay with HTRA3, P83110 (setting [1]) is reported as “below the threshold”; in the assay with GORASP1, Q9BQQ3 (setting [1]) it was “below the threshold”; with Inadl_8, Q8NI35 (setting [1]) it was “below the threshold”; with LNX1_2, Q8TBB1 (setting [1]), “below the threshold”; in the assay with RHPN1, Q8TCX5 (setting [1]) it was “below the threshold”; with ARHGEF11, O15085 (setting [1]) it was “below the threshold”. Further, the pKd entry is recorded as “below the threshold” in the assay with FRMPD2_3, Q68DX3 (setting [1]); “below the threshold” with LNX1_3, Q8TBB1 (setting [1]); “below the threshold” in the assay with Inadl_6, Q8NI35 (setting [1]).

In the case of KSGKQTMLVV [TRIM29, Q14134;Q14134-2], the negative logarithm of the Kd (pKd) entry is given as “below the threshold” with PARD3_3, Q8TEW0 (setting [2]); “below the threshold” with GOPC, Q9HD26; “below the threshold” in the assay with GIPC2, Q8TF65 (setting [2]); “below the threshold” with Inadl_10, Q8NI35 (setting [2]); “below the threshold” with MAGI1_2, Q96QZ7 (setting [2]); “below the threshold” in the assay with LIN7B, Q9HAP6 (setting [2]). Moreover, the negative logarithm of the Kd (pKd) result was “below the threshold” with DLG3_2, Q92796 (setting [2]); “below the threshold” in the assay with FRMPD1, Q5SYB0 (setting [2]); “below the threshold” with Inadl_1, Q8NI35 (setting [2]); “below the threshold” in the assay with APBA1_1, Q02410 (setting [2]); “below the threshold” with MAGI2_3, Q86UL8 (setting [2]); “below the threshold” in the assay with HTRA3, P83110 (setting [2]). Moreover, the negative logarithm of the Kd (pKd) with GORASP1, Q9BQQ3 (setting [2]) was 4.34; with LNX1_2, Q8TBB1 (setting [2]), 4.23; with RHPN1, Q8TCX5 (setting [2]), “below the threshold”; with FRMPD2_3, Q68DX3 (setting [2]), “below the threshold”; in the assay with LNX1_3, Q8TBB1 (setting [2]), “below the threshold”; with Inadl_6, Q8NI35 (setting [2]), “below the threshold”.

Turning to YLEPVLSSEL [ATP2A2, P16615;P16615-3], the pKd entry in the assay with PARD3_3, Q8TEW0 (setting [2]) was “below the threshold”; with GOPC, Q9HD26 it was “below the threshold”; in the assay with GIPC2, Q8TF65 (setting [2]) it was “below the threshold”; with Inadl_10, Q8NI35 (setting [2]), “below the threshold”; with SNTA1, Q13424 (setting [2]), “below the threshold”; with MAGI1_2, Q96QZ7 (setting [2]), “below the threshold”. Further, the pKd was 4.18 in the assay with DLG3_2, Q92796 (setting [2]); “below the threshold” with NHERF4_4, Q86UT5 (setting [2]); “below the threshold” with FRMPD1, Q5SYB0 (setting [2]); “below the threshold” with Inadl_1, Q8NI35 (setting [2]); “below the threshold” in the assay with APBA1_1, Q02410 (setting [2]); “below the threshold” with MAGI2_3, Q86UL8 (setting [2]). Moreover, the pKd entry was “below the threshold” with DLG4_2, P78352 (setting [2]); “below the threshold” with Inadl_4, Q8NI35 (setting [2]); 5.81 with MAST2, Q6P0Q8 (setting [2]); “below the threshold” in the assay with NHERF3_3, Q5T2W1 (setting [2]); “below the threshold” with FRMPD2_1, Q68DX3 (setting [2]); “below the threshold” with MAGI3_2, Q5TCQ9 (setting [2]). Moreover, the negative logarithm of the Kd (pKd) result with HTRA3, P83110 (setting [2]) was “below the threshold”; with GORASP1, Q9BQQ3 (setting [2]) it was “below the threshold”; with Inadl_8, Q8NI35 (setting [2]), “below the threshold”; in the assay with LNX1_2, Q8TBB1 (setting [2]), “below the threshold”; in the assay with RHPN1, Q8TCX5 (setting [2]), 4.24; with ARHGEF11, O15085 (setting [2]), 4.55. The negative-log Kd (pKd) result was “below the threshold” in the assay with FRMPD2_3, Q68DX3 (setting [2]); “below the threshold” in the assay with LNX1_3, Q8TBB1 (setting [2]); “below the threshold” in the assay with Inadl_6, Q8NI35 (setting [2]).

As for LPAHHNATRL [SLC34A1, Q06495;Q06495-1], the negative-log Kd (pKd) entry was “below the threshold” in the assay with PARD3_3, Q8TEW0 (setting [2]); 4.53 with GOPC, Q9HD26; “below the threshold” with GIPC2, Q8TF65 (setting [2]); “below the threshold” with Inadl_10, Q8NI35 (setting [2]); “below the threshold” with LIN7B, Q9HAP6 (setting [2]); “below the threshold” with DLG3_2, Q92796 (setting [2]). Further, the pKd entry with NHERF4_4, Q86UT5 (setting [2]) was “below the threshold”; with FRMPD1, Q5SYB0 (setting [2]) it was “below the threshold”; with Inadl_1, Q8NI35 (setting [2]), “below the threshold”; in the assay with APBA1_1, Q02410 (setting [2]), “below the threshold”; with MAGI2_3, Q86UL8 (setting [2]), “below the threshold”; in the assay with DLG4_2, P78352 (setting [2]) it was “below the threshold”. For the same molecule, the negative logarithm of the Kd (pKd) entry with Inadl_4, Q8NI35 (setting [2]) is “below the threshold”; with MAST2, Q6P0Q8 (setting [2]), 5.47; with NHERF3_3, Q5T2W1 (setting [2]), 4.47; in the assay with FRMPD2_1, Q68DX3 (setting [2]) it was “below the threshold”; in the assay with HTRA3, P83110 (setting [2]), “below the threshold”; with GORASP1, Q9BQQ3 (setting [2]) it was “below the threshold”. Also, the pKd result was “below the threshold” with LNX1_2, Q8TBB1 (setting [2]); 4.11 with ARHGEF11, O15085 (setting [2]); “below the threshold” in the assay with FRMPD2_3, Q68DX3 (setting [2]); “below the threshold” in the assay with LNX1_3, Q8TBB1 (setting [2]); “below the threshold” with Inadl_6, Q8NI35 (setting [2]).
